The target of assay [1] is non-randomized ABD displayed on staphylococcal cells (not stated (streptococcal)). Put plainly: flow cytometry on cells; S. carnosus cells displaying ABD-variants incubated 1 h at RT in PBSP pH 7.4 with twelve concentrations of biotinylated TNF-α (4.3-12900 nM; streptavidin-Alexa Fluor 488) or HSA-Alexa 488 (1.25-2500 nM; 10-20000 nM for ABD_(TNF1)); MFI fitted to a 1:1 model; apparent KD for TNF-α (monomer concentration). On the technique in general: In flow cytometry, cells or beads pass a laser one at a time.

Assay [2] has as its target ABD_(TNF2) displayed on staphylococcal cells. The assay is described as above.
Assay [3] deals with ABD_(TNF1) displayed on staphylococcal cells. The assay is described as above.
A further assay addresses ABD_(HT015). Description: SPR; ProteOn XPR36; ABD-molecules immobilized by amine coupling on GLM or GLC chips (about 800-1500 RU); HSA (7-1200 nM) or TNF-α (1-100 nM) injected, 50 µl/min, 25°C, PBS with 0.1% Tween 20; at least triplicates, two chips, two days; apparent KD for TNF-α (monomer concentration). Background: SPR reads the build-up and loss of mass on a sensor chip optically.

Another assay addresses ABD_(T001). Described as above.
The next assay has as its target ABD_(T002). The assay is described as above.
In a further assay the target is ABD_(HT016). The description is as above.
The next assay concerns the target ABD_(T004). Described as above.
For assay [4], the target named is human serum albumin (human) (UniProt P02768). Description: SPR; BIAcore 2000; HSA immobilized (2000 RU); ABD-variants injected in duplicates at about 1-3000 nM (up to 250 nM for ABD); 25°C, HBS-EP.

Chain of biotinylated TNF-α (P01375 77-233): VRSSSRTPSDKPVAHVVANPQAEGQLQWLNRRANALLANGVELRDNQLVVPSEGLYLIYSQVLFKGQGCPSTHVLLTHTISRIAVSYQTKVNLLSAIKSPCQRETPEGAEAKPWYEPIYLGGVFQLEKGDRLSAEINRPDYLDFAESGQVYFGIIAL

As to “HSA conjugated to Alexa Fluor 488 (from UniProt P02768 25-609) (natural protein)”, the figures for the Kd in assay [1] and in [2] were 19 nM and 23 nM, respectively.

For “biotinylated TNF-α (from UniProt P01375 77-233) (ligand)”, the Kd in assay [3] was 267 nM; in assay [2] it was 594 nM.

Regarding “human serum albumin (from UniProt P02768 25-609) (natural protein)”, the Kd with ABD_(HT015) turned out to be 35 nM; with ABD_(T001), 192 nM; in the assay with ABD_(T002), 649 nM; with ABD_(HT016) it was 68 nM; with ABD_(T004), 209 nM.

For the substance “non-randomized ABD (alkali-stabilized albumin-binding domain from streptococcal protein G) (domain or fragment)”, in [4], the Kd is 5.3 nM; the koff – broadly, the first-order rate constant of dissociation – is 0.0009 s⁻¹; the kon (usually the second-order rate constant of association) was found to be 170000 M⁻¹ s⁻¹.

As to “tumor necrosis factor-α (from UniProt P01375 77-233) (ligand)”, the Kd in the assay with ABD_(T001) is 5.2 nM; with ABD_(T002) it was 2.9 nM; with ABD_(HT016) it was 4.5 nM.

(Values after publication PMC3185003.)
